Experimental findings from PMC13315578 are described below.

What all share (settings): protein: recombinant; tags: N-terminal 6xHis-TEV site; tRNA fold, annealed
In one data set the target is T1, Min Elp3 Y304A (Methanocaldococcus infernus, UniProt D5VRB9 1-534, Y304A).
T1 sequence: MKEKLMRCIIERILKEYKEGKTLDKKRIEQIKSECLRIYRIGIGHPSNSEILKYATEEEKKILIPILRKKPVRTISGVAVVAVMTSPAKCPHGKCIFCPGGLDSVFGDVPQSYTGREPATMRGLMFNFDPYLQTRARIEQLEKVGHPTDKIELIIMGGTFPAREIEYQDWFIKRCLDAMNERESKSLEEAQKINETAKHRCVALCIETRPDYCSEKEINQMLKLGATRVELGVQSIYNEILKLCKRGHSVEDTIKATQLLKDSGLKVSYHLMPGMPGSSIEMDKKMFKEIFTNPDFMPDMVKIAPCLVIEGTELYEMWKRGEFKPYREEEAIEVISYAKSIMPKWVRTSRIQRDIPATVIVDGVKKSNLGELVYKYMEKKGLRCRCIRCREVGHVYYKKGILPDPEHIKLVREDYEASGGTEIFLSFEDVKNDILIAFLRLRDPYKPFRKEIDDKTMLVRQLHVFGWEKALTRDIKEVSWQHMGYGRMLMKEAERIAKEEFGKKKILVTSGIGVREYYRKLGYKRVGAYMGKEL
Put plainly: EMSA; EMSA: 250 nM tRNA, 0-20 uM Elp3, 100 mM HEPES pH 7.5, 750 mM NaCl, 25 mM DTT, 20 °C 30 min; 5% TBE gel at 4 °C. For orientation: Mobility shift assays separate free from complexed probe on a gel.

For a further data set, the target named is T2, Min Elp3 M156W (Methanocaldococcus infernus, UniProt D5VRB9 1-534, M156W).
T2 sequence: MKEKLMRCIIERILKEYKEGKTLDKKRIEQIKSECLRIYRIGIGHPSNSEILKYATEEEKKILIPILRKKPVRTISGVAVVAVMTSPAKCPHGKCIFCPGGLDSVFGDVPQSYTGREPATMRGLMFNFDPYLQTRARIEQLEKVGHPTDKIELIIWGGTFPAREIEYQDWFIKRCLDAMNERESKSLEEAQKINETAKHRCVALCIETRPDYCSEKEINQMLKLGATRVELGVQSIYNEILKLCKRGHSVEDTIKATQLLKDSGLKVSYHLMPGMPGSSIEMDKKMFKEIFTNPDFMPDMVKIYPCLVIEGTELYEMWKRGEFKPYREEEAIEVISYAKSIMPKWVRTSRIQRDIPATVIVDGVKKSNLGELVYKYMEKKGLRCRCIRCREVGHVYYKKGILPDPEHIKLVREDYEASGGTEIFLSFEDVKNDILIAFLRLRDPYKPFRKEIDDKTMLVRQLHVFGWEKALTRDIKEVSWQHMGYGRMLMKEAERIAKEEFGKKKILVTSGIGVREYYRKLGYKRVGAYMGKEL
Put plainly: EMSA; comparable affinity to WT; EMSA: 250 nM tRNA, 0-20 uM Elp3, 100 mM HEPES pH 7.5, 750 mM NaCl, 25 mM DTT, 20 °C 30 min; 5% TBE gel at 4 °C.

The target in the next data set is T3, Min Elp3 I154W (Methanocaldococcus infernus, UniProt D5VRB9 1-534, I154W).
T3 sequence: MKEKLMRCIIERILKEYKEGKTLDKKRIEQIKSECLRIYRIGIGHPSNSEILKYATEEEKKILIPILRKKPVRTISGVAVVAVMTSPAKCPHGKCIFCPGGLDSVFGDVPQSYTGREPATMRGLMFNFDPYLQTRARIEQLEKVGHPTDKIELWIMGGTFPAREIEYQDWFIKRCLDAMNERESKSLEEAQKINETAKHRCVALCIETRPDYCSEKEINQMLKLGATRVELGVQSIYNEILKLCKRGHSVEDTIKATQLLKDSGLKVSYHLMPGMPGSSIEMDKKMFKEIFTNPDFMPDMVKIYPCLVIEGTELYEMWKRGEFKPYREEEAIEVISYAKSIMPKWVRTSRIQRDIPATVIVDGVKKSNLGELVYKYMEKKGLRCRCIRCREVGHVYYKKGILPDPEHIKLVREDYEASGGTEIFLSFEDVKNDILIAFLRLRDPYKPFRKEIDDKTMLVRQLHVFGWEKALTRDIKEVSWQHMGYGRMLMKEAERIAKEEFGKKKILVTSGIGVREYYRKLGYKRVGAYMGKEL
Described as above.

The target in the next data set is T4, Min Elp3 K302A (Methanocaldococcus infernus, UniProt D5VRB9 1-534, K302A).
T4 sequence: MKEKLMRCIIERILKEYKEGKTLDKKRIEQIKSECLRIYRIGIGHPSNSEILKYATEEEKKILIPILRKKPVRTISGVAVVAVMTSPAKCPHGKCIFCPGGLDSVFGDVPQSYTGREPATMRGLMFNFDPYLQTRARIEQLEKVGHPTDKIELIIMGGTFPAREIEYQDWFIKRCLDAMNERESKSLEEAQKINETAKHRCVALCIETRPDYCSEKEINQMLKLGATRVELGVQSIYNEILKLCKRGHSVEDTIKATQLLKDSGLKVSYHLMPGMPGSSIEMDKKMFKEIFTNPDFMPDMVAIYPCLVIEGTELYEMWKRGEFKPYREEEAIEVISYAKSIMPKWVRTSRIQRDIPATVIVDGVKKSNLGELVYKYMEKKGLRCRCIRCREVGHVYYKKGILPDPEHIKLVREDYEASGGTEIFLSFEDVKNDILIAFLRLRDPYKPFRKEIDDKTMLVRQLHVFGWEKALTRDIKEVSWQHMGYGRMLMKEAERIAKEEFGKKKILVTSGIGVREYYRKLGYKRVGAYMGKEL
As to the kind of experiment: EMSA; similar affinity to WT; EMSA: 250 nM tRNA, 0-20 uM Elp3, 100 mM HEPES pH 7.5, 750 mM NaCl, 25 mM DTT, 20 °C 30 min; 5% TBE gel at 4 °C.

For the next data set, the target named is T5, Min Elp3 E207A (Methanocaldococcus infernus, UniProt D5VRB9 1-534, E207A).
T5 sequence: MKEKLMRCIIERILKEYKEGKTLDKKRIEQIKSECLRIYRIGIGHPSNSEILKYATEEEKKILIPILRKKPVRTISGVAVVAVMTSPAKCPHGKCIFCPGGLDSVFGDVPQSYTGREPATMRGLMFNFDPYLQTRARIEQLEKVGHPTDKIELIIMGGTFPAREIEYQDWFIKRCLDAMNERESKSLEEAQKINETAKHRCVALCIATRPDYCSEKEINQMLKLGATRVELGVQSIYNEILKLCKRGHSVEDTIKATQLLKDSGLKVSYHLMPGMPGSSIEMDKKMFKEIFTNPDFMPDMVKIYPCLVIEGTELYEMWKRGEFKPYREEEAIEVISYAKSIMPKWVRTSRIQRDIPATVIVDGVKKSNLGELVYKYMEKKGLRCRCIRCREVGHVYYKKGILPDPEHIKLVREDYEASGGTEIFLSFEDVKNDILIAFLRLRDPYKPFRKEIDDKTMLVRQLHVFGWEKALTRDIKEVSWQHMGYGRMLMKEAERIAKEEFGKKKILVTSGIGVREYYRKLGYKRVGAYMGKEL
Described as above.

B1: tRNA ArgUCU (structured_RNA)
RNA: GGACCCGUAGCCUAGCCUGGAUAGGGCACCGGCCUUCUAAGCCGGGGGUCGGGGGUUCAAAUCCCCCCGGGUCCGCCA
With B1, the binding signal in the data set with Min Elp3 Y304A is around 1.5 fold KD increase vs WT. Further, the binding result with Min Elp3 M156W, in the data set with Min Elp3 I154W, with Min Elp3 K302A and with Min Elp3 E207A was “binds” in each case.
